Measured values reported in PMC4893161, “The Dynamic Localization of Cytoplasmic Dynein in Neurons Is Driven by Kinesin-1” (Neuron, 2016).
Blank lines part the entries; values can stand above or below the substance they belong to.

Columns and labels:
[1] = target: HA-tagged KLC2 (kinesin light chain 2) (UniProt O88448); assay: co-immunoprecipitation (IP with anti-mCherry, western blot band intensity); settings: COS cells cotransfected, n = 4 experiments, parent: est. 1, read off a plot
[2] = target: HA-tagged KLC1 (kinesin light chain 1) (UniProt O88447); assay: as above; settings: COS cells cotransfected, n = 6 experiments, parent: est. 1, read off a plot
Sequence of HA-tagged KLC1 (kinesin light chain 1) (O88447 whole entry, the tested form may be a part): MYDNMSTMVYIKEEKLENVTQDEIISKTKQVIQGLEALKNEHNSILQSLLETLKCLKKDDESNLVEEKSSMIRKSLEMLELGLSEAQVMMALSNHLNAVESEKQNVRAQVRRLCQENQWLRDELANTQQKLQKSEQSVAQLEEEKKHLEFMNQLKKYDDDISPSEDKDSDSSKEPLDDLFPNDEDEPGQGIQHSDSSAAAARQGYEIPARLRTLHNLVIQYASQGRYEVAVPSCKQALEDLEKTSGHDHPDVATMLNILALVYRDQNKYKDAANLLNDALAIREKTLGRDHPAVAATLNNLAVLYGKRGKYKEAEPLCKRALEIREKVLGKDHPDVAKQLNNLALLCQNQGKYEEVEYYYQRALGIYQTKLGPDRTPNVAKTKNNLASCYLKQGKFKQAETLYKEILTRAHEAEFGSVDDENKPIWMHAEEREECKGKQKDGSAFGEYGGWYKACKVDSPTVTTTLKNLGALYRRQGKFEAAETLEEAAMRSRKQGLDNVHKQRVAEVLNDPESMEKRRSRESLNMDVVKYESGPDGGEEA

[3] = target: KLC2^TPR, purified TPR domain of KLC2; assay: fluorescence polarisation; TAMRA-conjugated DIC1 tryptophan-motif peptides with purified KLC1 or KLC2 TPR domain; KD values determined at 150 mM NaCl

Sequence of HA-tagged KLC2 (kinesin light chain 2) (O88448 whole entry): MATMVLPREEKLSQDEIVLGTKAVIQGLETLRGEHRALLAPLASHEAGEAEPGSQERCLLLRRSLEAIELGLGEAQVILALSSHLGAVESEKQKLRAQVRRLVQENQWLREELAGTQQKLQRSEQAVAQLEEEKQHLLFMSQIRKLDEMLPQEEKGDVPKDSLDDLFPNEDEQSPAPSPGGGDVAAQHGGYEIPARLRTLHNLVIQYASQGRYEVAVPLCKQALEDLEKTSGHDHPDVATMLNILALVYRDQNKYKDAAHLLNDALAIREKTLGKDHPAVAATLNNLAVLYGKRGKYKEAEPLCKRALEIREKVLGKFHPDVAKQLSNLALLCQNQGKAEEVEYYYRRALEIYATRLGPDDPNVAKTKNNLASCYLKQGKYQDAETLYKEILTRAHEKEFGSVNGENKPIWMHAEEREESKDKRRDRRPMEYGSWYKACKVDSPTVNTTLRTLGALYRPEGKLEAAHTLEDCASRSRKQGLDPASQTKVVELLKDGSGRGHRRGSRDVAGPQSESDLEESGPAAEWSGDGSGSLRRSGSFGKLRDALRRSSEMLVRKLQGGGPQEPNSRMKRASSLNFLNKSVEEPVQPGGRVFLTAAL

ratio to parent ([1]; p = 0.4 vs WT): 0.77
ratio to parent ([2]; p = 1 vs WT): 0.93
Substance: mCherry-tagged DIC1a (dynein intermediate chain 1, isoform a), wild-type (from UniProt Q63100) WD1AA

ratio to parent ([1]; p = 0.014 vs WT): 0.53
ratio to parent ([2]; p = 0.039 vs WT): 0.47
Substance: mCherry-tagged DIC1a (dynein intermediate chain 1, isoform a), wild-type (from UniProt Q63100) WD1&2AA

Kd [3]: 9.18 µM
Substance: WD1^pept, TAMRA-conjugated 11-amino-acid peptide centered on the first tryptophan motif of DIC1

ratio to parent ([1]; p = 0.064 vs WT): 0.63
ratio to parent ([2]; p = 0.08 vs WT): 0.53
Substance: mCherry-tagged DIC1a (dynein intermediate chain 1, isoform a), wild-type (from UniProt Q63100) WD2AA
